Experimental data as given in the supplement of paper PMC10567573.

B1: SNX8 (parent)
chain: LHQETQLIHVYLPLTSHILRAFVN
B2: MMP1 (parent)
chain: FHGTRQYKFDPKTKRILTLQKANS

Variants of: B1
Experiment: protein stability index of a GFP-peptide fusion (GPS, HEK-293T) (PSI 1-6); higher = more stable
Details: c terminus: a fixed tail appended
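Also: lentivirally expressed fusions sorted by FACS into six bins by GFP to DsRed ratio, PSI derived from sequencing read proportions per bin multiplied by bin number.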

Protein stability index of substitutions, site by site:
L1: N 2.75 | E 3.18 | Q 2.18 | K 3.1 | A 2.75 | H 1.85 | I 2.88 | V 2.64 | F 3.82 | R 2.06 | P 3.01 | D 3.07 | T 3.62
H2: R 1.82 | G 2.72 | N 2.5 | L 1.83 | S 2.03 | F 2.04 | Q 2.5 | P 2.04 | D 3.62

Variants of: B2
Experiment: as above
Details: c terminus: a fixed tail appended

Protein stability index of substitutions, site by site:
F9: I 1.68 | W 2.27 | R 2.39 | A 1.74 | Y 1.75 | D 2.27 | E 1.76 | G 2.24 | H 1.98 | L 2.05 | M 1.67 | K 2.17 | N 2.39 | S 2.08 | V 1.58 | C 2.48 | P 2.13 | T 1.55 | Q 1.6
K14: N 2.14 | E 1.85 | I 1.92 | Y 1.36 | V 2.53 | F 1.98 | A 2.68 | P 2.1 | R 1.85 | T 1.61 | D 2.19 | H 1.54 | M 2.16 | Q 1.82 | C 2.18 | G 1.54 | S 1.69 | W 1.95 | L 1.99
N23: S 1.93 | C 2.32 | H 1.88 | K 3.21 | F 1.25 | P 1.67 | G 1.39 | R 2.38 | V 2.08 | T 1.29 | W 1.51 | E 1.91 | A 1.37 | D 2.46 | M 1.8 | Y 2.1 | Q 1.85 | I 2.87 | L 2.08
K8: T 2.5 | M 2.63 | R 2.65 | Y 2.22 | Q 1.78 | S 2.52 | V 1.74 | P 1.71 | W 3.37 | N 2.71
S24: D 1.77 | P 2.08 | I 2.09 | K 1.84 | A 1.6 | N 2.16 | V 1.79 | H 2.58 | M 1.85 | L 1.76 | T 1.65 | E 1.79 | F 1.59 | C 2.01 | Q 2.07 | Y 1.67 | R 1.3 | G 2.03
K12: L 1.91 | T 1.73 | R 2.44 | C 1.86 | D 1.53 | Q 2.04 | M 1.7 | Y 3.08 | H 2.21 | I 1.95 | W 3.25 | F 2.27 | P 2.26 | E 2.4 | N 2.12 | S 1.57 | V 1.55 | A 1.87 | G 1.47
P11: H 1.98 | F 1.07 | T 2.43 | Q 2.29 | I 2.57 | V 1.8 | L 1.52 | D 2.01 | G 1.66 | A 2.31 | E 1.67 | C 1.79 | Y 2.13 | R 1.88 | N 1.93 | M 1.83 | K 1.83 | W 2.19 | S 1.78
I16: G 1.64 | N 1.84 | T 1.91 | S 1.7 | P 1.93 | W 1.95 | H 1.42 | Q 1.94 | V 2.25 | E 1.93 | K 1.67 | A 2.8 | R 1.36 | D 2.5 | F 1.64 | M 1.64 | Y 1.35 | L 2.21 | C 1.68
Q20: V 1.75 | T 1.8 | F 1.91 | A 2.46 | M 1.45 | L 2.12 | Y 1.66 | H 2.09 | I 1.78 | E 2.03 | P 2.06 | S 2.28 | W 2.77 | R 2.37 | G 2.01 | N 1.73 | C 2.16 | D 1.88 | K 1.84
L17: S 1.8 | Y 1.95 | Q 2.19 | H 2.17 | I 1.78 | M 1.53 | W 1.88 | K 2.1 | E 1.59 | A 1.92 | D 1.91 | R 2.56 | N 1.6 | V 1.73 | G 2.38 | C 2.02 | F 1.56 | T 2.2 | P 1.57
K21: T 1.54 | G 1.11 | C 2.53 | H 2.33 | P 2.04 | N 2.27 | F 2.14 | A 2.02 | D 1.88 | Q 1.9 | I 1.78 | L 1.32 | Y 2.43 | V 1.6 | R 1.82 | S 1.81 | E 2.86 | M 1.54
D10: Q 2.46 | I 2.14 | H 1.95 | T 2.03 | N 1.22 | A 1.88 | W 1.77 | R 1.62 | C 1.49 | M 2.18 | G 2.15 | Y 2.01 | P 1.72 | F 2.45 | L 1.5 | K 1.83 | V 1.42 | E 1.7 | S 2.36
L19: R 1.44 | W 2.61 | N 1.94 | G 2.94 | Q 1.87 | Y 2.34 | T 2.2 | H 1.59 | F 1.68 | K 2.05 | C 1.63 | D 2.49 | E 1.73 | P 1.87 | I 2.05 | S 2.03 | M 1.91 | V 2.03 | A 1.54
T13: G 1.62 | D 2.33 | R 1.85 | E 1.69 | L 2.09 | V 1.6 | K 2 | N 1.96 | M 1.67 | S 1.99 | I 1.8 | H 2.21 | P 1.8 | Q 2.37 | C 2.66 | W 2.07 | Y 1.65 | F 1.68 | A 2.3
R15: M 1.47 | I 2.05 | E 1.83 | W 1.69 | T 1.83 | F 1.3 | N 1.73 | S 1.91 | Q 2.16 | Y 1.57 | K 1.66 | A 2.51 | D 1.86 | G 1.31 | P 2.29 | C 1.28 | V 1.77 | H 1.86 | L 2.2
A22: V 1.45 | S 2.51 | I 1.38 | T 1.68 | E 2.92 | Q 2.06 | R 1.65 | P 2.19 | F 1.77 | G 1.73 | K 1.99 | C 2.07 | W 1.6 | M 1.83 | Y 2.49 | H 2.49 | N 2.09 | L 1.52 | D 1.48
T18: P 2.18 | I 1.61 | Q 1.73 | D 3.38 | A 2.05 | R 1.68 | C 1.55 | N 2.15 | E 2.07 | H 1.39 | M 1.74 | W 2.4 | G 1.86 | F 1.67 | K 1.34 | V 1.04 | Y 1.51 | L 1.58 | S 1.9
